# Experimental data: US20150361164A1 (EVEC, published 2015)
# T1: bovine thymus-derived HMGB1 (bovine, UniProt P10103 2-215)
# T1 construct: Bought protein from tissue
# T1 sequence (looked up): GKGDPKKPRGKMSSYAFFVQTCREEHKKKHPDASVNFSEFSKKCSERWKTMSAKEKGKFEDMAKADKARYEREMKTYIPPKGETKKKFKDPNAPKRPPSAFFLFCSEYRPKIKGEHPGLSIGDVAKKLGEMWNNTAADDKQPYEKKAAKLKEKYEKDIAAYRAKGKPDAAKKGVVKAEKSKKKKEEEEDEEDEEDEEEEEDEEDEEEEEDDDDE
# Legend:
# [1] = biological target: T1, bovine thymus-derived HMGB1; experiment: ELISA on HMGB1-immobilized immunoplate, antibodies adjusted to an equal concentration; OD as % of EV007156 (L) + #10-22 chimera (H) (source of the HMGB1 not named for this figure)
# [2] = biological target: T1, bovine thymus-derived HMGB1; experiment: ELISA on HMGB1-immobilized immunoplate, antibodies adjusted to an equal concentration; OD as % of #10-22 chimera (source of the HMGB1 not named for this figure)
Binder,binding result [1],binding result [2]
"#10-22 chimeric antibody (H chain) site substitution variant A94R (antibody, human IgG1, lambda, V domains shown, Variant H chain co-expressed with EV007156L in CHO-K1 cells) VH: AVQLVESGGGLVQPKESLKISCAASGFTFSNAAMYWVRQAPGKGLEWVARIRTKPNNYATYYADSVKGRFTISRDDSKSMVYLQMDNLKTEDTAMYYCTRPRRTEGIVSSGVDYWGQGVMVTVSS VL: YELTQPPSVSVSPGQTASITCSGDELPKRYAYWYQQKPGQSIVRVIYKDSERPSGIPERFSGSSSGTTATLTISGTQAEDEADYYCHSTYSDDKLPVFGGGTKLTVLG",binds,
"M77T (antibody, human IgG1, lambda, V domains shown, co-expressed with EV007156L in CHO-K1 cells; also called #10-22 chimeric antibody (H chain) site substitution variant M77T; copies: 2 + 2) VH: AVQLVESGGGLVQPKESLKISCAASGFTFSNAAMYWVRQAPGKGLEWVARIRTKPNNYATYYADSVKGRFTISRDDSKSTVYLQMDNLKTEDTAMYYCTAPRRTEGIVSSGVDYWGQGVMVTVSS VL: YELTQPPSVSVSPGQTASITCSGDELPKRYAYWYQQKPGQSIVRVIYKDSERPSGIPERFSGSSSGTTATLTISGTQAEDEADYYCHSTYSDDKLPVFGGGTKLTVLG",binds,
"S76N (antibody, human IgG1, lambda, V domains shown, co-expressed with EV007156L in CHO-K1 cells; also called #10-22 chimeric antibody (H chain) site substitution variant S76N; copies: 2 + 2) VH: AVQLVESGGGLVQPKESLKISCAASGFTFSNAAMYWVRQAPGKGLEWVARIRTKPNNYATYYADSVKGRFTISRDDSKNMVYLQMDNLKTEDTAMYYCTAPRRTEGIVSSGVDYWGQGVMVTVSS VL: YELTQPPSVSVSPGQTASITCSGDELPKRYAYWYQQKPGQSIVRVIYKDSERPSGIPERFSGSSSGTTATLTISGTQAEDEADYYCHSTYSDDKLPVFGGGTKLTVLG",binds,
"E16G (antibody, human IgG1, lambda, co-expressed with EV007156L in CHO-K1 cells; also called #10-22 chimeric antibody (H chain) site substitution variant E16G; copies: 2 + 2) heavy: not shown light: YELTQPPSVSVSPGQTASITCSGDELPKRYAYWYQQKPGQSIVRVIYKDSERPSGIPERFSGSSSGTTATLTISGTQAEDEADYYCHSTYSDDKLPVFGGGTKLTVLGQPKAAPSVTLFPPSSEELQANKATLVCLISDFYPGAVTVAWKADSSPVKAGVETTTPSKQSNNKYAASSYLSLTPEQWKSHRSYSCQVTHEGSTVEKTVAPTECS",binds,
"K15G (antibody, human IgG1, lambda, co-expressed with EV007156L in CHO-K1 cells; also called #10-22 chimeric antibody (H chain) site substitution variant K15G; copies: 2 + 2) heavy: not shown light: YELTQPPSVSVSPGQTASITCSGDELPKRYAYWYQQKPGQSIVRVIYKDSERPSGIPERFSGSSSGTTATLTISGTQAEDEADYYCHSTYSDDKLPVFGGGTKLTVLGQPKAAPSVTLFPPSSEELQANKATLVCLISDFYPGAVTVAWKADSSPVKAGVETTTPSKQSNNKYAASSYLSLTPEQWKSHRSYSCQVTHEGSTVEKTVAPTECS",binds,
"M89V (antibody, human IgG1, lambda, V domains shown, co-expressed with EV007156L in CHO-K1 cells; also called #10-22 chimeric antibody (H chain) site substitution variant M89V; copies: 2 + 2) VH: AVQLVESGGGLVQPKESLKISCAASGFTFSNAAMYWVRQAPGKGLEWVARIRTKPNNYATYYADSVKGRFTISRDDSKSMVYLQMDNLKTEDTAVYYCTAPRRTEGIVSSGVDYWGQGVMVTVSS VL: YELTQPPSVSVSPGQTASITCSGDELPKRYAYWYQQKPGQSIVRVIYKDSERPSGIPERFSGSSSGTTATLTISGTQAEDEADYYCHSTYSDDKLPVFGGGTKLTVLG",binds,
"D60E (antibody, human IgG1, lambda, V domains shown, co-expressed with the #10-22 chimeric antibody H chain in CHO-K1 cells; also called #10-22 chimeric antibody (L chain) site substitution variant D60E) VH: AVQLVESGGGLVQPKESLKISCAASGFTFSNAAMYWVRQAPGKGLEWVARIRTKPNNYATYYADSVKGRFTISRDDSKSMVYLQMDNLKTEDTAMYYCTAPRRTEGIVSSGVDYWGQGVMVTVSS VL: YELIQPPSASVTLGNTVSITCSGDELPKRYAYWYQQKPDKSIVRVIYKDSERPSGISERFSGSSSGTTATLTIRDTQAEDEADYYCHSTYSDDKLPVFGGGTKLTVLG",,binds
"V78A (antibody, human IgG1, lambda, V domains shown, co-expressed with EV007156L in CHO-K1 cells; also called #10-22 chimeric antibody (H chain) site substitution variant V78A; copies: 2 + 2) VH: AVQLVESGGGLVQPKESLKISCAASGFTFSNAAMYWVRQAPGKGLEWVARIRTKPNNYATYYADSVKGRFTISRDDSKSMAYLQMDNLKTEDTAMYYCTAPRRTEGIVSSGVDYWGQGVMVTVSS VL: YELTQPPSVSVSPGQTASITCSGDELPKRYAYWYQQKPGQSIVRVIYKDSERPSGIPERFSGSSSGTTATLTISGTQAEDEADYYCHSTYSDDKLPVFGGGTKLTVLG",binds,
"V107T (antibody, human IgG1, lambda, co-expressed with EV007156L in CHO-K1 cells; also called #10-22 chimeric antibody (H chain) site substitution variant V107T; copies: 2 + 2) heavy: not shown light: YELTQPPSVSVSPGQTASITCSGDELPKRYAYWYQQKPGQSIVRVIYKDSERPSGIPERFSGSSSGTTATLTISGTQAEDEADYYCHSTYSDDKLPVFGGGTKLTVLGQPKAAPSVTLFPPSSEELQANKATLVCLISDFYPGAVTVAWKADSSPVKAGVETTTPSKQSNNKYAASSYLSLTPEQWKSHRSYSCQVTHEGSTVEKTVAPTECS",binds,
"M108L (antibody, human IgG1, lambda, co-expressed with EV007156L in CHO-K1 cells; also called #10-22 chimeric antibody (H chain) site substitution variant M108L; copies: 2 + 2) heavy: not shown light: YELTQPPSVSVSPGQTASITCSGDELPKRYAYWYQQKPGQSIVRVIYKDSERPSGIPERFSGSSSGTTATLTISGTQAEDEADYYCHSTYSDDKLPVFGGGTKLTVLGQPKAAPSVTLFPPSSEELQANKATLVCLISDFYPGAVTVAWKADSSPVKAGVETTTPSKQSNNKYAASSYLSLTPEQWKSHRSYSCQVTHEGSTVEKTVAPTECS",binds,
"D77G (antibody, human IgG1, lambda, V domains shown, co-expressed with the #10-22 chimeric antibody H chain in CHO-K1 cells; also called #10-22 chimeric antibody (L chain) site substitution variant D77G) VH: AVQLVESGGGLVQPKESLKISCAASGFTFSNAAMYWVRQAPGKGLEWVARIRTKPNNYATYYADSVKGRFTISRDDSKSMVYLQMDNLKTEDTAMYYCTAPRRTEGIVSSGVDYWGQGVMVTVSS VL: YELIQPPSASVTLGNTVSITCSGDELPKRYAYWYQQKPDKSIVRVIYKDSERPSGISDRFSGSSSGTTATLTIRGTQAEDEADYYCHSTYSDDKLPVFGGGTKLTVLG",,binds

# Now from value to binder:
binding result [1],binding result [2],Binder
,binds,"S59P (antibody, human IgG1, lambda, V domains shown, co-expressed with the #10-22 chimeric antibody H chain in CHO-K1 cells; also called #10-22 chimeric antibody (L chain) site substitution variant S59P) VH: AVQLVESGGGLVQPKESLKISCAASGFTFSNAAMYWVRQAPGKGLEWVARIRTKPNNYATYYADSVKGRFTISRDDSKSMVYLQMDNLKTEDTAMYYCTAPRRTEGIVSSGVDYWGQGVMVTVSS VL: YELIQPPSASVTLGNTVSITCSGDELPKRYAYWYQQKPDKSIVRVIYKDSERPSGIPDRFSGSSSGTTATLTIRDTQAEDEADYYCHSTYSDDKLPVFGGGTKLTVLG"
binds,,"D82aN (antibody, human IgG1, lambda, V domains shown, co-expressed with EV007156L in CHO-K1 cells; also called #10-22 chimeric antibody (H chain) site substitution variant D82aN; copies: 2 + 2) VH: AVQLVESGGGLVQPKESLKISCAASGFTFSNAAMYWVRQAPGKGLEWVARIRTKPNNYATYYADSVKGRFTISRDDSKSMVYLQMNNLKTEDTAMYYCTAPRRTEGIVSSGVDYWGQGVMVTVSS VL: YELTQPPSVSVSPGQTASITCSGDELPKRYAYWYQQKPGQSIVRVIYKDSERPSGIPERFSGSSSGTTATLTISGTQAEDEADYYCHSTYSDDKLPVFGGGTKLTVLG"
binds,,"N82bS (antibody, human IgG1, lambda, V domains shown, co-expressed with EV007156L in CHO-K1 cells; also called #10-22 chimeric antibody (H chain) site substitution variant N82bS; copies: 2 + 2) VH: AVQLVESGGGLVQPKESLKISCAASGFTFSNAAMYWVRQAPGKGLEWVARIRTKPNNYATYYADSVKGRFTISRDDSKSMVYLQMDSLKTEDTAMYYCTAPRRTEGIVSSGVDYWGQGVMVTVSS VL: YELTQPPSVSVSPGQTASITCSGDELPKRYAYWYQQKPGQSIVRVIYKDSERPSGIPERFSGSSSGTTATLTISGTQAEDEADYYCHSTYSDDKLPVFGGGTKLTVLG"
binds,,"I20L (antibody, human IgG1, lambda, co-expressed with EV007156L in CHO-K1 cells; also called #10-22 chimeric antibody (H chain) site substitution variant I20L; copies: 2 + 2) heavy: not shown light: YELTQPPSVSVSPGQTASITCSGDELPKRYAYWYQQKPGQSIVRVIYKDSERPSGIPERFSGSSSGTTATLTISGTQAEDEADYYCHSTYSDDKLPVFGGGTKLTVLGQPKAAPSVTLFPPSSEELQANKATLVCLISDFYPGAVTVAWKADSSPVKAGVETTTPSKQSNNKYAASSYLSLTPEQWKSHRSYSCQVTHEGSTVEKTVAPTECS"
,binds,"D41G (antibody, human IgG1, lambda, V domains shown, co-expressed with the #10-22 chimeric antibody H chain in CHO-K1 cells; also called #10-22 chimeric antibody (L chain) site substitution variant D41G) VH: AVQLVESGGGLVQPKESLKISCAASGFTFSNAAMYWVRQAPGKGLEWVARIRTKPNNYATYYADSVKGRFTISRDDSKSMVYLQMDNLKTEDTAMYYCTAPRRTEGIVSSGVDYWGQGVMVTVSS VL: YELIQPPSASVTLGNTVSITCSGDELPKRYAYWYQQKPGKSIVRVIYKDSERPSGISDRFSGSSSGTTATLTIRDTQAEDEADYYCHSTYSDDKLPVFGGGTKLTVLG"
,binds,"K42Q (antibody, human IgG1, lambda, V domains shown, co-expressed with the #10-22 chimeric antibody H chain in CHO-K1 cells; also called #10-22 chimeric antibody (L chain) site substitution variant K42Q) VH: AVQLVESGGGLVQPKESLKISCAASGFTFSNAAMYWVRQAPGKGLEWVARIRTKPNNYATYYADSVKGRFTISRDDSKSMVYLQMDNLKTEDTAMYYCTAPRRTEGIVSSGVDYWGQGVMVTVSS VL: YELIQPPSASVTLGNTVSITCSGDELPKRYAYWYQQKPDQSIVRVIYKDSERPSGISDRFSGSSSGTTATLTIRDTQAEDEADYYCHSTYSDDKLPVFGGGTKLTVLG"
binds,,"A1E (antibody, human IgG1, lambda, co-expressed with EV007156L in CHO-K1 cells; also called #10-22 chimeric antibody (H chain) site substitution variant A1E; copies: 2 + 2) heavy: not shown light: YELTQPPSVSVSPGQTASITCSGDELPKRYAYWYQQKPGQSIVRVIYKDSERPSGIPERFSGSSSGTTATLTISGTQAEDEADYYCHSTYSDDKLPVFGGGTKLTVLGQPKAAPSVTLFPPSSEELQANKATLVCLISDFYPGAVTVAWKADSSPVKAGVETTTPSKQSNNKYAASSYLSLTPEQWKSHRSYSCQVTHEGSTVEKTVAPTECS"
binds,,"P41S (antibody, human IgG1, lambda, V domains shown, co-expressed with EV007156L in CHO-K1 cells; also called #10-22 chimeric antibody (H chain) site substitution variant P41S; copies: 2 + 2) VH: AVQLVESGGGLVQPKESLKISCAASGFTFSNAAMYWVRQASGKGLEWVARIRTKPNNYATYYADSVKGRFTISRDDSKSMVYLQMDNLKTEDTAMYYCTAPRRTEGIVSSGVDYWGQGVMVTVSS VL: YELTQPPSVSVSPGQTASITCSGDELPKRYAYWYQQKPGQSIVRVIYKDSERPSGIPERFSGSSSGTTATLTISGTQAEDEADYYCHSTYSDDKLPVFGGGTKLTVLG"
,binds,"R76S (antibody, human IgG1, lambda, V domains shown, co-expressed with the #10-22 chimeric antibody H chain in CHO-K1 cells; also called #10-22 chimeric antibody (L chain) site substitution variant R76S) VH: AVQLVESGGGLVQPKESLKISCAASGFTFSNAAMYWVRQAPGKGLEWVARIRTKPNNYATYYADSVKGRFTISRDDSKSMVYLQMDNLKTEDTAMYYCTAPRRTEGIVSSGVDYWGQGVMVTVSS VL: YELIQPPSASVTLGNTVSITCSGDELPKRYAYWYQQKPDKSIVRVIYKDSERPSGISDRFSGSSSGTTATLTISDTQAEDEADYYCHSTYSDDKLPVFGGGTKLTVLG"
